Experimental data: patent US20190284272A1 (published 2019)

How the values were obtained:
[1] = molecular target: T1, canine IL-31 protein (Canine_IL31) (canine); experiment: SPR (Biacore), FIG. 2 Section B
T1 construct: Recombinant, secreted from CHO cells; also called cIL-31; canine cytokine
T1 chain: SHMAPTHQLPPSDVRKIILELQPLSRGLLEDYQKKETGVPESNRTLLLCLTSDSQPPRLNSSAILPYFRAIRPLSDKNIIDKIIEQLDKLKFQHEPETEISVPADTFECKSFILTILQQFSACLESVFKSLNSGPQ
Procedure: (§1) The affinity with which candidate mAbs bind canine and feline IL-31 was determined using surface plasmon resonance (SPR) on a Biacore system (Biocore Life Sciences (GE Healthcare), Uppsala, Sweden). To avoid affinity differences associated with differential surface preparation that can occur when immobilizing antibodies to surfaces; a strategy was employed where IL-31 was directly conjugated to the surface. Immobilization was obtained by amine coupling 5 μg/mL IL-31 using N-hydroxysuccinimide (NHS)/1-Ethyl-3-(3-dimethylaminopropyl) carbodiimide (EDC) chemistry. Chips were quenched with ethanolamine and the affinity with which all candidate mAbs bound to the immobilized IL-31 was evaluated. All curves were fit to a 1:1 model. […] Results for affinity measurements are described herein.
FIG. 2 details the affinity of antibodies with CDRs derived from mouse origin using biacore. […] These observations confirm the correct sequence for both mouse antibodies and indicate conversion to the chimeric form results in antibodies with equivalent or higher affinity when compared to the mouse parent with the exception of the mouse:feline 15H05 chimera which lost some affinity to both IL-31 species as a result of its conversion to the chimeric form. […]

[2] = molecular target: T1, canine IL-31 protein (Canine_IL31); experiment: cell-based or functional assay
[3] = molecular target: T2, canine IL-31 protein (Canine_IL31); experiment: Biacore
T2 chain: T1 chain

[4] = molecular target: T1, canine IL-31 protein (Canine_IL31); experiment: Biacore, canine IL-31 surface, single antibody concentration (FIG. 4)
Procedure: as §1
For the indirect ELISA method, antibody binding to wildtype and feline IL-31 15H05 mutant proteins was assessed. All nine canine monoclonal antibodies (ZIL1, ZIL8, ZIL8, ZIL11, ZIL69, ZIL94, ZIL154, ZIL159, and ZIL171) were capable of binding to wildtype feline IL-31 and binding was impacted by mutations in the mAb 15H05 epitope region confirming the correct binding phenotype determined during the initial screening used to identify them. […]

B1: Feline 11E12 1.2 (antibody, V domains shown)
VH: QVLLVQSGAEVKKPGASVKIFCKASGYSFTYYDINWLRQAPEQGLEWMGWIFPGDGGTKYNETFKGRLTLTADTSTNTVYMELSSLRSADTAMYYCARGGTSVIRDAMDYWGQGALVTVSS
VL: EVVLTQSSAFLSRTLKEKATITCRASESVDNYGISFMHWYQQKPNQAPKLLVKRASNLESGAPSRFSGSGSGTDFTLTISSPEPEDAATYYCQQSNKDPLTFGQGT
notes: also called felinized 11E12 1.2
[1]
  binding result: no binding

B2: mouse: feline 15H05 chimera (antibody)
heavy: QVQLQQSAAELARPGASVKMSCKTSGYTFTSYTIHWIKQRPGQGLEWIGNINPTSGYTENNQRFKDKTTLTVDRSSNTAYLQLHSLTSEDSAVYFCARWGFKYDGEWSFDVWGAGTTVTVSSASTTAPSVFPLAPSCGTTSGATVALACLVLGYFPEPVTVSWNSGALTSGVHTFPAVLQASGLYSLSSMVTVPSSRWLSDTFTCNVAHPPSNTKVDKTVRKTDHPPGPKPCDCPKCPPPEAAGAPSIFIFPPKPKDTLSISRTPEVTCLVVDLGPDDSDVQITWFVDNTQVYTAKTSPREEQFNSTYRVVSVLPILHQDWLKGKEFKCKVNSKSLPSPIERTISKAKGQPHEPQVYVLPPAQEELSRNKVSVTCLIKSFHPPDIAVEWEITGQPEPENNYRTTPPQLDSDGTYFVYSKLSVDRSHWQRGNTYTCSVSHEALHSHHTQKSLTQSPGK
light: DIQMNQSPSSLSASLGDTITVTCRASQGISIWLSWYQQKPGNIPKVLINKASNLHIGVPPRFSGSGSGTHFTLTITSLQPEDIATYYCLQSQTYPLTFGGGTKLEINRSDAQPSVFLFQPSLDELHTGSASIVCILNDFYPKEVNVKWKVDGVVQNKGIQESTTEQNSKDSTYSLSSTLTMSSTEYQSHEKFSCEVTHKSLASTLVKSFQRSECQRE
[2]
  IC50 against canine IL-31 (pSTAT3 assay; cell type not clear): 28.6 µg/ml
[3]
  Kd: 0.0129 nM

B3: ZIL154 (antibody, V domains shown)
VH: EVHLVESGGDLVKPWGSLRLSCVASGFTFSDRGMSWVRQSPGKGLQWVAYIRYDGSRTDYADAVEGRFTISRDNAKNTLYLQMNSLRAEDTAVYYCARWDGSSFDYWGQGTLVTVSS
VL: DIVVTQTPLSLSVSPGETASFSCKASQSLLHSDGNTYLDWFRQKPGQSPQRLIYKVSNRDPGVPDRFSGSGSGTDFTLRISGVEADDAGLYYCMQAIHFPLTFGAGTKVELKR
notes: Recombinant fully canine IgG (65_1), HEK 293; also called CAN-ZIL154
[4]
  binding result: no binding

B4: 15H05 mouse: canine chimera (antibody)
heavy: QVQLQQSAAELARPGASVKMSCKTSGYTFTSYTIHWIKQRPGQGLEWIGNINPTSGYTENNQRFKDKTTLTVDRSSNTAYLQLHSLTSEDSAVYFCARWGFKYDGEWSFDVWGAGTTVTVSSASTTAPSVFPLAPSCGSTSGSTVALACLVSGYFPEPVTVSWNSGSLTSGVHTFPSVLQSSGLYSLSSMVTVPSSRWPSETFTCNVAHPASKTKVDKPVPKRENGRVPRPPDCPKCPAPEMLGGPSVFIFPPKPKDTLLIARTPEVTCVVVDLDPEDPEVQISWFVDGKQMQTAKTQPREEQFNGTYRVVSVLPIGHQDWLKGKQFTCKVNNKALPSPIERTISKARGQAHQPSVYVLPPSREELSKNTVSLTCLIKDFFPPDIDVEWQSNGQQEPESKYRTTPPQLDEDGSYFLYSKLSVDKSRWQRGDTFICAVMHEALHNHYTQESLSHSPGK
light: DIQMNQSPSSLSASLGDTITVTCRASQGISIWLSWYQQKPGNIPKVLINKASNLHIGVPPRFSGSGSGTHFTLTITSLQPEDIATYYCLQSQTYPLTFGGGTKLEINRNDAQPAVYLFQPSPDQLHTGSASVVCLLNSFYPKDINVKWKVDGVIQDTGIQESVTEQDKDSTYSLSSTLTMSSTEYLSHELYSCEITHKSLPSTLIKSFQRSEC
[2]
  IC50 against canine IL-31 (pSTAT3 assay; cell type not clear): 12.5 µg/ml
